Stoichiometry N data for 1 substance are collected here from publication doi:10.1101/2024.03.20.586028.

The experiment has as its target Methanocaldococcus jannaschii SufB* (N-terminal His6 tagged) (Methanocaldococcus jannaschii). The experiment is described as follows: pull-down.

In the case of “Methanocaldococcus jannaschii SufC (untagged) (natural protein)”, the stoichiometry N was 1.
